The values below come from paper doi:10.1101/2021.03.14.433363.

For series [1], the target named is T1, DRH-3 CTD (Caenorhabditis elegans, UniProt Q93413 940-1108).
T1 sequence: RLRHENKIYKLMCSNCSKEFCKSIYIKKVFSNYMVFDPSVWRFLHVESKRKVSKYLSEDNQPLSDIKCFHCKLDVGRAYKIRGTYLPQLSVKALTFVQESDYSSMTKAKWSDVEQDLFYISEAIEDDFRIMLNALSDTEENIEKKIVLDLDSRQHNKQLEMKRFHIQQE
In words: fluorescence polarization.

Series [2] deals with T1, DRH-3 CTD. In words: crystal structure.
The target of series [3] is T2, RIG-I CTD (human, UniProt O95786 802-925).
T2 sequence: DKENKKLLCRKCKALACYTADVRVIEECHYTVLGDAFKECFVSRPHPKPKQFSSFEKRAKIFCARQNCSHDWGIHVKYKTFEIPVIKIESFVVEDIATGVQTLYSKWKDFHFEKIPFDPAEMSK
In words: limited trypsin proteolysis protection.

Series [4] has as its target T3, DRH-3 full length (Caenorhabditis elegans, UniProt Q93413 1-1119).
T3 sequence: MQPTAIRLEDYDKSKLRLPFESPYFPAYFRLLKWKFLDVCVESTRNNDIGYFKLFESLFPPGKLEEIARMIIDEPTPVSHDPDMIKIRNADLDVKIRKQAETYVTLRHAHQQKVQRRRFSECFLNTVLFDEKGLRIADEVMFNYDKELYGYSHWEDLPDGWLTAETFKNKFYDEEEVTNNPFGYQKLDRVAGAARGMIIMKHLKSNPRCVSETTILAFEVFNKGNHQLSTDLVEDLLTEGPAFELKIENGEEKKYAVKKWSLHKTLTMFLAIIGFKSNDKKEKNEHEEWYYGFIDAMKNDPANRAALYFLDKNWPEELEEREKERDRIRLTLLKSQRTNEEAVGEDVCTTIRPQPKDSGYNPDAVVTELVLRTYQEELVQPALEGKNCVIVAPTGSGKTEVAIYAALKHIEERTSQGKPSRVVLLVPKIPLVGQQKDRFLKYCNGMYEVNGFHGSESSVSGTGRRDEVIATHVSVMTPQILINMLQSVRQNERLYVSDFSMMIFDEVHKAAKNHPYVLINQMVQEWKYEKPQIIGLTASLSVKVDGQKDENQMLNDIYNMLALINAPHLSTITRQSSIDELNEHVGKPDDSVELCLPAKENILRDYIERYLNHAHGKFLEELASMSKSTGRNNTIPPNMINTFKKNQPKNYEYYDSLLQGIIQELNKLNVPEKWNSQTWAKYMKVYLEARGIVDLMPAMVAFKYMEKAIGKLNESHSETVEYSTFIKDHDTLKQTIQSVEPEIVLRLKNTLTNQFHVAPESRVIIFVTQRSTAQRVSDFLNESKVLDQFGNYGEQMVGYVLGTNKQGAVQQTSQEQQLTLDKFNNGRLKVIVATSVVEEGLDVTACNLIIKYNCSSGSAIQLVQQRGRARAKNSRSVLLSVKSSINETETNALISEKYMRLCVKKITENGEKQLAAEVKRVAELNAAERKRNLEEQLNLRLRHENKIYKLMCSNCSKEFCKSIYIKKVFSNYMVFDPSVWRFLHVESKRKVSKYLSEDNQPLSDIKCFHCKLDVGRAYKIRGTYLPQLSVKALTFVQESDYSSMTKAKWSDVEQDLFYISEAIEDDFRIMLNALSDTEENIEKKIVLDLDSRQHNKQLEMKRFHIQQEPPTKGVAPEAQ
The experiment in a line: HDX-MS.

Series [5] concerns the target T2, RIG-I CTD. The experiment in a line: limited trypsin proteolysis protection. This is another data set of the same source.

Like-named read-outs stand apart in the source and are kept apart here.

For UUUAUAUAUUAGGACCGCUCGGCGGUCCUAAUAUAUAAA (structured_RNA, 5'-OH) [FAM-labelled 5'-OH 18-mer hairpin RNA], the Kd (as a rule, the free concentration of one partner at which half of the binding sites on the other are occupied at equilibrium, for simple one-to-one binding) in series [1] turned out to be 325 ± 70.1 nM. With GGCCGCCC (ssRNA, 5'-triphosphate) [5'-ppp 8-mer ssRNA], in series [2], the binding result is “binds”.

B1: 5'-ppp 12-mer dsRNA with 3'-overhang (dsRNA)
RNA 1: GGCGCGCGCGCCC
RNA 2: GGCGCGCGCGCCC
modifications: 5'-triphosphate
In the case of B1, the binding result in series [3] is given as “binds”. Consider GGACGUACGUUUCGACGUACGUCC (structured_RNA, 5'-triphosphate) [3p10L (SLR10)], for which the binding result in series [4] is listed as “binds”.

B2: 5'-ppp 12-mer dsRNA (dsRNA)
RNA 1: GGCGCGCGCGCC
RNA 2: GGCGCGCGCGCC
modifications: 5'-triphosphate
As for B2, the binding result in series [5] and in series [2] was “binds” in each case.
